Data taken from patent publication US20100221257A1.

Legend:
[1] = biological target: human IL-1R1, endogenous on human cells (HeLa cells; whole blood) (human) (UniProt P14778); assay: cell-based or functional assay
[2] = biological target: Human sIL-1R1 (R&D Systems), un-tagged (human) (UniProt P14778); assay: KinExA, IgG equilibrated in solution with un-tagged sIL-1R1; free IgG captured on IL-1R1 beads
Sequence of Human sIL-1R1 (R&D Systems), un-tagged (human) (P14778 18-332 limits assumed): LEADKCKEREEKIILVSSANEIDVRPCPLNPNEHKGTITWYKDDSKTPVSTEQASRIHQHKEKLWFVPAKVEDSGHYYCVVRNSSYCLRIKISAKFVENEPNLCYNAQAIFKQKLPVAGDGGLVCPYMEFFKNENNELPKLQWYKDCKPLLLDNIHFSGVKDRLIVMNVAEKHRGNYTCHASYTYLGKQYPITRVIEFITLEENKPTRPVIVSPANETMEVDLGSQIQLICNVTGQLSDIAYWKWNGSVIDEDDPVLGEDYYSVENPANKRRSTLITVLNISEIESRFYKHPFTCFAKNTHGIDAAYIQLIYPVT

Sequence of human IL-1R1, endogenous on human cells (HeLa cells; whole blood) (human) (P14778 18-569): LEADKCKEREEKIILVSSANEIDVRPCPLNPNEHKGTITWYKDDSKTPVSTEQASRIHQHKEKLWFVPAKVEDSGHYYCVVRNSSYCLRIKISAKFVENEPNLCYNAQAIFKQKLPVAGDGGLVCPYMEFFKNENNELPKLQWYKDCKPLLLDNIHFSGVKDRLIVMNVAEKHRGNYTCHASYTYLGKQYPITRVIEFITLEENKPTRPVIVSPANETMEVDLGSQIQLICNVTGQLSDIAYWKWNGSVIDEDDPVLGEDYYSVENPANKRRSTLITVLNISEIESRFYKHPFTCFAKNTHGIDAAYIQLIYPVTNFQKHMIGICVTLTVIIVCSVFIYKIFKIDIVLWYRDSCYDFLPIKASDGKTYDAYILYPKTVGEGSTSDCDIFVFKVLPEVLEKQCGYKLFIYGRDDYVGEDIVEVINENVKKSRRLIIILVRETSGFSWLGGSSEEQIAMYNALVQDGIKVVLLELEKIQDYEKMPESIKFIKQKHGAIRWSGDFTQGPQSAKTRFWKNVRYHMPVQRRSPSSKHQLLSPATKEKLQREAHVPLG

With AMG108 IgG2 (antibody) the IC50, inhibition of IL-1 alpha induced IL-8 release in HeLa cells (N = 3) [1] was 11.7 pM, the IC50, inhibition of IL-1 beta induced IL-8 release in HeLa cells (run with the GL IgG2 set, N = 5-6) [1] was 5.9 pM and the IC50, inhibition of IL-1 beta induced IL-8 release in HeLa cells (run with the IgG1 set, N = 6-7) [1] was 5.3 pM. For the same substance, the IC50, inhibition of human IL-1β induced IL-8 release from HeLa cells [1] was 9 pM and the Kd [2] was 4.12 pM.
